Source: patent US20100292083A1 (Ablynx, published 2010)

T1: human IL6R (human, UniProt P08887 20-358, limits assumed)
T1 construct: Antigen of the Biacore experiments
T1 sequence (looked up): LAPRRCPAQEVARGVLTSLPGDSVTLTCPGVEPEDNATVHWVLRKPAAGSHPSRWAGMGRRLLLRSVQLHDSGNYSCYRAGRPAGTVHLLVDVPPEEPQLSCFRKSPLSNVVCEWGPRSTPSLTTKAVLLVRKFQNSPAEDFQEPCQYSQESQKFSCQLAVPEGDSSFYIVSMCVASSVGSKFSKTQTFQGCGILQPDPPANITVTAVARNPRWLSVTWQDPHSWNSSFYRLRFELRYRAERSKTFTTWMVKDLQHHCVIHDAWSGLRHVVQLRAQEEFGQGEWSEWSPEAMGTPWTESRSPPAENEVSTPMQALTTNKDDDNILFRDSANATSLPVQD


biological target: T1, human IL6R; experiment: SPR (Biacore), periplasmic extract
Experimental: The oligos were dissolved in H₂O and subsequently pooled at a final concentration of 0.4 uM for each oligo. 5 and 1 ul of this mixture was used for assembly PCR in a 50 ul reaction volume. Full-length product was purified using the Qiagen PCR purification kit. The purified PCR product was then digested with SfiI and BsteEII and ligated into the corresponding sites of expression vector pAX51. E. coli TG1 cells were transformed with 2 ul of ligation mixture and plated on LB agar+100 ug/ml ampicillin+2% glucose. Plates were incubated overnight at 37° C. Individual colonies were picked and grown overnight in 2×YT+100 ug/ml ampicillin+2% glucose. Cloned Nanobody genes were amplified directly from these cultures with M13 forward and reverse primers. PCR products were purified and subsequently sequenced. In parallel the same panel of Nanobodies was expressed at 1 ml scale for 4 hours at 37° C. Periplasmic extracts were prepared and without further purification analyzed on Biacore for their ability to bind human IL6R.

| Binder | koff [s⁻¹] |
| --- | --- |
| 32C9PMP1_A1 (VHH, name in Kabat numbering, Humanized 32C9 variant) VHH: EVQLVESGGGLVQAGGSLRLSCAASGFTFSDYDIGWVRQAPGKEREWVSGISSSDGNTYYADSVKGRFTISSDNAKNTLYLQMNSLRPEDTAVYYCAAEPPDSSWYLDGSPEFFKYWGQGTLVTVSS | 0.00515 |
| 32C9PMP2_E2 (VHH, name in Kabat numbering, Humanized 32C9 variant) VHH: EVQLVESGGGLVQPGGSLRLSCAASGFTFSDYDIGWFRQAPGKELEGVSGISSSDGNTYYADSVKGRFTISSDNAKNTLYLQMNSLKAEDTAVYYCAAEPPDSSWYLDGSPEFFKYWGQGTQVTVSS | 0.00121 |
| 32C9PMP2_C3 (VHH, name in Kabat numbering, Humanized 32C9 variant) VHH: EVQLVESGGGLVQAGGSLRLSCAASGFTFSDYDIGWVRQAPGKEREWVSGISSSDGNTYYADSVKGRFTISSDNAKNTLYLQMNSLKAEDTAVYYCAAEPPDSSWYLDGSPEFFKYWGQGTQVTVSS | 0.0138 |
| 32C9PMP2_G12 (VHH, name in Kabat numbering, Humanized 32C9 variant) VHH: EVQLVESGGGLVQAGGSLRLSCAASGFTFSDYDIGWFRQAPGKGREGVSGISSSDGNTYYADSVKGRFTISRDNAKNTLYLQMNSLKAEDTAVYYCAAEPPDSSWYLDGSPEFFKYWGQGTQVTVSS | 0.000197 |
| 32C9PMP2_G4 (VHH, name in Kabat numbering, Humanized 32C9 variant) VHH: EVQLVESGGGLVQAGGSLRLSCAASGFTFDDYDIGWVRQAPGKGREGVSGISSSDGNTYYADSVKGRFTISRDNAKNTLYLQMNSLKAEDTAVYYCAAEPPDSSWYLDGSPEFFKYWGQGTQVTVSS | 0.0007 |
| 32C9PMP2_F12 (VHH, name in Kabat numbering, Humanized 32C9 variant) VHH: EVQLVESGGGLVQAGGSLRLSCAASGFTFDDYDIGWVRQAPGKGREGVSGISSSDGNTYYADSVKGRFTISSDNAKNTLYLQMNSLRPEDTAVYYCAAEPPDSSWYLDGSPEFFKYWGQGTLVTVSS | 0.000584 |
| 32C9PMP1_D4 (VHH, name in Kabat numbering, Humanized 32C9 variant) VHH: EVQLVESGGGLVQAGGSLRLSCAASGFTFSDYDIGWFRQAPGKGREGVSGISSSDGNTYYADSVKGRFTISSDNAKNTLYLQMNSLKAEDTAVYYCAAEPPDSSWYLDGSPEFFKYWGQGTQVTVSS | 0.000196 |
| 32C9PMP2_B12 (VHH, name in Kabat numbering, Humanized 32C9 variant) VHH: EVQLVESGGGLVQPGGSLRLSCAASGFTFSDYDIGWFRQAPGKEREWVSGISSSDGNTYYADSVKGRFTISSDNAKNTVYLQMNSLKAEDTAVYYCAAEPPDSSWYLDGSPEFFKYWGQGTQVTVSS | 0.00564 |
| 32C9PMP2_F3 (VHH, name in Kabat numbering, Humanized 32C9 variant) VHH: EVQLVESGGGLVQAGGSLRLSCAASGFTFDDYDIGWVRQAPGKGREGVSGISSSDGNTYYADSVKGRFTISSDNAKNTVYLQMNSLKAEDTAVYYCAAEPPDSSWYLDGSPEFFKYWGQGTLVTVSS | 0.000804 |
| 32C9PMP1_C5 (VHH, name in Kabat numbering, Humanized 32C9 variant) VHH: EVQLVESGGGLVQAGGSLRLSCAASGFTFDDYDIGWVRQAPGKELEGVSGISSSDGNTYYADSVKGRFTISSDNAKNTVYLQMNSLRPEDTAVYYCAAEPPDSSWYLDGSPEFFKYWGQGTLVTVSS | 0.0052 |
| 32C9PMP1_E6 (VHH, name in Kabat numbering, Humanized 32C9 variant) VHH: EVQLVESGGGLVQAGGSLRLSCAASGFTFSDYDIGWVRQAPGKGREGVSGISSSDGNTYYADSVKGRFTISSDNAKNTVYLQMNSLKAEDTAVYYCAAEPPDSSWYLDGSPEFFKYWGQGTLVTVSS | 0.000982 |
| 32C9PMP2_A2 (VHH, name in Kabat numbering, Humanized 32C9 variant) VHH: EVQLVESGGGLVQPGGSLRLSCAASGFTFSDYDIGWFRQAPGKGREGVSGISSSDGNTYYADSVKGRFTISRDNAKNTLYLQMNSLKAEDTAVYYCAAEPPDSSWYLDGSPEFFKYWGQGTQVTVSS | 0.000192 |
| 32C9PMP1_F8 (VHH, name in Kabat numbering, Humanized 32C9 variant) VHH: EVQLVESGGGLVQAGGSLRLSCAASGFTFSDYDIGWFRQAPGKEREWVSGISSSDGNTYYADSVKGRFTISSDNAKNTLYLQMNSLKAEDTAVYYCAAEPPDSSWYLDGSPEFFKYWGQGTLVTVSS | 0.00189 |
| 32C9PMP2_E1 (VHH, name in Kabat numbering, Humanized 32C9 variant) VHH: EVQLVESGGGLVQPGGSLRLSCAASGFTFDDYDIGWFRQAPGKELEGVSGISSSDGNTYYADSVKGRFTISSDNAKNTVYLQMNSLRPEDTAVYYCAAEPPDSSWYLDGSPEFFKYWGQGTQVTVSS | 0.00166 |
| 32C9PMP2_D10 (VHH, name in Kabat numbering, Humanized 32C9 variant) VHH: EVQLVESGGGLVQPGGSLRLSCAASGFTFSDYDIGWVRQAPGKELEGVSGISSSDGNTYYADSVKGRFTISSDNAKNTVYLQMNSLRPEDTAVYYCAAEPPDSSWYLDGSPEFFKYWGQGTLVTVSS | 0.00707 |
| 32C9PMP2_B11 (VHH, name in Kabat numbering, Humanized 32C9 variant) VHH: EVQLVESGGGLVQAGGSLRLSCAASGFTFDDYDIGWVRQAPGKEREWVSGISSSDGNTYYADSVKGRFTISSDNAKNTLYLQMNSLRPEDTAVYYCAAEPPDSSWYLDGSPEFFKYWGQGTQVTVSS | 0.00768 |
| 32C9PMP2_A7 (VHH, name in Kabat numbering, Humanized 32C9 variant) VHH: EVQLVESGGGLVQAGGSLRLSCAASGFTFSDYDIGWVRQAPGKGREGVSGISSSDGNTYYADSVKGRFTISRDNAKNTLYLQMNSLKAEDTAVYYCAAEPPDSSWYLDGSPEFFKYWGQGTLVTVSS | 0.000792 |
| 32C9PMP1_G5 (VHH, name in Kabat numbering, Humanized 32C9 variant) VHH: EVQLVESGGGLVQPGGSLRLSCAASGFTFDDYDIGWFRQAPGKELEGVSGISSSDGNTYYADSVKGRFTISRDNAKNTLYLQMNSLRPEDTAVYYCAAEPPDSSWYLDGSPEFFKYWGQGTLVTVSS | 0.00116 |
| 32C9PMP1_E7 (VHH, name in Kabat numbering, Humanized 32C9 variant) VHH: EVQLVESGGGLVQAGGSLRLSCAASGFTFDDYDIGWFRQAPGKGREGVSGISSSDGNTYYADSVKGRFTISSDNAKNTLYLQMNSLKAEDTAVYYCAAEPPDSSWYLDGSPEFFKYWGQGTLVTVSS | 0.000187 |
| 32C9PMP2_B5 (VHH, name in Kabat numbering, Humanized 32C9 variant) VHH: EVQLVESGGGLVQAGGSLRLSCAASGFTFSDYDIGWVRQAPGKGREGVSGISSSDGNTYYADSVKGRFTISSDNAKNTVYLQMNSLRPEDTAVYYCAAEPPDSSWYLDGSPEFFKYWGQGTLVTVSS | 0.000803 |
| 32C9PMP1_H4 (VHH, name in Kabat numbering, Humanized 32C9 variant) VHH: EVQLVESGGGLVQPGGSLRLSCAASGFTFSDYDIGWFRQAPGKGREGVSGISSSDGNTYYADSVKGRFTISSDNAKNTLYLQMNSLKAEDTAVYYCAAEPPDSSWYLDGSPEFFKYWGQGTQVTVSS | 0.000187 |
| 32C9PMP1_E1 (VHH, name in Kabat numbering, Humanized 32C9 variant) VHH: EVQLVESGGGLVQAGGSLRLSCAASGFTFSDYDIGWFRQAPGKGREGVSGISSSDGNTYYADSVKGRFTISRDNAKNTLYLQMNSLKAEDTAVYYCAAEPPDSSWYLDGSPEFFKYWGQGTLVTVSS | 0.000205 |
| 32C9PMP2_A12 (VHH, name in Kabat numbering, Humanized 32C9 variant) VHH: EVQLVESGGGLVQAGGSLRLSCAASGFTFDDYDIGWFRQAPGKELEGVSGISSSDGNTYYADSVKGRFTISSDNAKNTVYLQMNSLKAEDTAVYYCAAEPPDSSWYLDGSPEFFKYWGQGTQVTVSS | 0.0029 |
| 32C9PMP2_C6 (VHH, name in Kabat numbering, Humanized 32C9 variant) VHH: EVQLVESGGGLVQAGGSLRLSCAASGFTFSDYDIGWVRQAPGKGREWVSGISSSDGNTYYADSVKGRFTISSDNAKNTLYLQMNSLRPEDTAVYYCAAEPPDSSWYLDGSPEFFKYWGQGTQVTVSS | 0.00426 |
| 32C9PMP2_B3 (VHH, name in Kabat numbering, Humanized 32C9 variant) VHH: EVQLVESGGGLVQAGGSLRLSCAASGFTFSDYDIGWFRQAPGKEREGVSGISSSDGNTYYADSVKGRFTISRDNAKNTVYLQMNSLKAEDTAVYYCAAEPPDSSWYLDGSPEFFKYWGQGTLVTVSS | 0.000308 |
| 32C9PMP1_B5 (VHH, name in Kabat numbering, Humanized 32C9 variant) VHH: EVQLVESGGGLVQPGGSLRLSCAASGFTFSDYDIGWFRQAPGKEREWVSGISSSDGNTYYADSVKGRFTISRDNAKNTLYLQMNSLRPEDTAVYYCAAEPPDSSWYLDGSPEFFKYWGQGTQVTVSS | 0.00196 |
| 32C9PMP1_G11 (VHH, name in Kabat numbering, Humanized 32C9 variant) VHH: EVQLVESGGGLVQAGGSLRLSCAASGFTFSDYDIGWFRQAPGKGREGVSGISSSDGNTYYADSVKGRFTISSDNAKNTVYLQMNSLRPEDTAVYYCAAEPPDSSWYLDGSPEFFKYWGQGTLVTVSS | 0.000204 |
| 32C9PMP1_B3 (VHH, name in Kabat numbering, Humanized 32C9 variant) VHH: EVQLVESGGGLVQPGGSLRLSCAASGFTFDDYDIGWVRQAPGKELEGVSGISSSDGNTYYADSVKGRFTISSDNAKNTLYLQMNSLRPEDTAVYYCAAEPPDSSWYLDGSPEFFKYWGQGTLVTVSS | 0.00346 |

biological target: T1, human IL6R; experiment: SPR (Biacore), periplasmic extract; remark: another data set of the same source

| Binder | binding result |
| --- | --- |
| 32C9PMP2_F5 (VHH, name in Kabat numbering, Humanized 32C9 variant) VHH: EVQLVESGGGLVQPGGSLRLSCAASGFTFDDYDIGWFRQAPGKEREWVSGISSSDGNTYYADSVKGRFTISSDNAKNTLYLQMNSLKAEDTAVYYCAREPPDSSWYLDGSPEFFKYWGQGTLVTVSS | no binding |
